Test results: US11028127B2, “Peptides capable of reactivating p53 mutants” (Yeda Research and Development Co. Ltd., priority 2013, dated 2021)

How the values were obtained:
[1] = target: T1, Mut-p53 (R175H p53) (Homo sapiens, UniProt P04637, R175H); assay: p53/DNA binding ELISA kit (R&D), binding to p53-RE DNA; type: biochemical; conditions: H1299-R175H p53 cell extracts, vs background (NT)
T1 construct: a hot spot full length mutant p53 Mut-p53 R175H (R175H p53); expressed in transfected cells; host or cells: H1299 (p53-null) cells stably overexpressing R175H p53; cell extract
Text: A commercial p53/DNA binding kit (R&D) was used, according to manufacturer instructions. Briefly, 96 well plates were coated with anti-p53 antibody overnight. Cell extracts containing p53 were reacted with an oligonucleotide that contains a p53 consensus binding site, labeled with biotin, in the presence or absence (NT) of test peptides. WT p53 is expected to bind this DNA binding site as well as to the antibody coating the test wells of the plate. Excess p53 and oligos are washed away and streptavidin-HRP is used to quantify the amount of oligos in the well, which is proportional to the DNA bound by p53. TMB assay was performed to determine HRP levels (450 nm). The results are presented as relative absorbance (at 450 nm) (Y-Axis) of each tested sample. MCF7 and the H1299-Mut-p53 (ts) A135V cells serve as positive controls for WT p53.
For these experiments, a commercial p53/DNA binding kit of “R&D” (Cat-DYC1355-5 Lot-1273366FA) was used, in accordance with manufacturer guide lines. Briefly, 96 well plates are coated with anti-p53 antibody overnight. Cell extracts containing p53 are reacted with an oligonucleotide that contains a p53 consensus binding site (provided in the kit), labeled with biotin, in the presence or absenc.
e (NT) of test peptides. WT p53 is expected to bind this DNA binding site as well as to the antibody coating the test wells of the plate. Excess p53 and oligos were washed away and streptavidin-HRP was used to quantify the amount of oligos in the well, which is proportional to the DNA bound by p53. TMB assay was performed to determine HRP (ES001-1L-K) levels (450 nm).
To measure the effect of the tested peptides on DNA binding of Mut-p53, a commercial ELISA kit, (R&D Systems DYC1355-5, Lot-1273366FA), was used as a high-throughput assay to quantify p53 activation. This kit uses a 96-well plate format. The kit was used according to manufacturer's instructions. Wells were coated with anti-p53 antibody overnight. Cell extracts containing p53 were reacted with a biotin labeled oligonucleotide containing a p53 consensus binding site (included in the kit). WT p53 is expected to bind this oligo as well as the antibody coating the wells. Excess p53 and oligo were washed away in wash buffer (0.05% Tween 20 in PBS, pH 7.2-7.4; R&D Systems, Catalog #WA126). Then, streptavidin-HRP (R&D Systems, Part 890803, provided in the kit) was added for 15-45 min to quantify the amount of oligo in the well, which is proportional to the DNA bound by p53. If the addition of a peptide to Mut-p53 extracts increases ELISA reading compared to background, this peptide is considered as functionally effective and may be selected for further analysis. […] As with the conformational screening, MCF7 and the H1299-Mut-p53 (ts) A135V cells served as positive controls for WT p53. Extracts were added to the wells coated with αp53-Ab, and after several washing steps, streptavidin-HRP was added for 1 hour, and then plates were washed again and TMB (substrate to HRP) assay was performed.

[2] = test system: WI-38 fibroblasts overexpressing R175H p53 (WI38-175); assay: Crystal violet viability assay; type: cell-based; conditions: 48 hours; much more prominent than in mNoxa-i control cells
Experimental: FIGS. 13A and 13B are bar graphs illustrating the effect of various tested peptides on the viability of cells expressing Mut-p53, as determine by crystal violet assay. WI-38 fibroblasts expressing endogenous WT p53 were infected with retroviruses expressing either mouse Noxa shRNA (WI38-m-Noxa-i) as a nonspecific control or the R175H p53 mutant for stable overexpression of mutant p53 (WI38-175). The cells (WI38-m-Noxa-i or WI38-175) were seeded at 3000 cells per well in 96-well plates. Tested peptides were added to the cells. Different concentrations of etoposide (cytotoxic drug, 4′-Demethyl-epipodophyllotoxin 9-[4,6-O—(R)-ethylidene-beta-D-glucopyranoside], 4′-(dihydrogen phosphate) were used as positive control for cell death and as a standard reference curve to assess the effect of tested peptides. 48 hours after treatment, cells were washed with PBS to exclude dead cells and debris, and cells that remained attached to the plate were stained with crystal-violet for 30 minutes. Crystal violet was removed and cells were washed 4 times with PBS to remove residual crystal violet. Then, the stained cells were dissolved in 10% acetic acid and plates were taken for optical density measurement at 595 nM (optimal for crystal violet). The bar graphs of FIGS. 13A and 13B show the optical density reads at 595 nm, which reflect the number of cells in the plate after treatment, normalized to the non-treated (NT) samples.
Cells were cultured in 96 wells plates with 2500-4000 cells/well in 0.1 ml and incubated overnight at 37° C. in order to adhere to the plate. Serial dilutions of different peptides (0.5 μg/ml) were added in 0.1 ml aliquots and the plates incubated for additional 48 h at 37° C. Then medium was removed and cell lysis was determined by staining the cells with crystal violet (0.5%) in methanol/water (1:4, v/v), 50 μl each well, for 10 min, followed by 3 washes with PBS. Afterwards, 10% acetic acid (50 μl) was added to each well and shaken for 10 min. Then, automatic plate reading was performed at 595 nm.
An important indication for the reactivating peptides activity is their effect in-vivo on cancer cells that express Mut-p53. In particular, reactivating peptides that can cause specifically Mut-p53-dependent death of cancer cells, with minimal toxic effects on normal cells are desired. A crystal-violet based viability assay, in which crystal-violet is employed to stain cells that adhere to the plate and therefore the amount of dye is proportional to cell number was used to determine the effect of the various test peptides on Mut-p53-dependent death.
Cells were plated in 96-well plates, at calibrated density that allows them to grow for 48 hours without reaching confluence. Peptides are added 6 hours later. Different concentrations of etoposide (cytotoxic drug) were used as positive control for cell death and as a standard reference curve to assess the effect of tested peptides. 48 hours after treatment, cells were washed with PBS to exclude dead cells and debris, and cells that remained attached to the plate were stained with crystal-violet for 30 minutes. Crystal-violet was removed and cells were washed with PBS 4 times to eliminate remains of crystal-violet. Then, the stained cells were dissolved in 10% acetic acid and plates were taken for optical density measurement at 595 nM (specific to crystal-violet).
FIGS. 13A and 13B illustrate a representative experiment of screening performed on 128 synthesized peptides. In this experiment, WI-38 fibroblasts were used. These cells express endogenous WT p53 and were further infected with a virus expressing either mouse Noxa shRNA, as a nonspecific control or the R175H p53 mutant for stable overexpression of mutant p53. Both of these sub-lines (mNoxa or R175H p53) were seeded at 3000 cells per well and treated as described above. […]

[3] = target: T1, Mut-p53 (R175H p53); assay: Sandwich ELISA for p53 conformation (PAb1620/PAb240 reactivity); type: biochemical; conditions: extract of H1299 cells overexpressing R175H p53; peptide 50 ng/ml, 2 hours
Experimental: To measure the conformational effect of the peptides on Mut-p53, a micro-titer plate was coated with either PAb240, PAb1620 or pAb421 (as a positive control and standard for total p53 protein, since the antibody used recognizes both WT and mutant conformations), overnight incubated, washed, blocked, and cell extracts (with or without peptides) were added for an additional 2 hours. After removal of extracts, plates were washed and incubated with the αp53-HRP conjugated Ab for the detection of p53 levels. A TMB (substrate of HRP) assay was performed and optical density was determined at 450 nm. WT p53 served as a positive control for reactivity with PAb1620, and Mut-p53 served as a negative control. The results are presented as the ratio of absorbance between the PAb1620 or PAb240 samples and the control […] sample. MCF7 and H1299-Mut-p53 (ts) A135V (TS) cells were used as positive controls for the WT p53 conformation (1620/240 ratio equals or exceeds 5:1).
96-well plates were coated using 3 different antibodies (1 type of antibody (Ab) in each well): PAb421 recognizes both conformations of p53 and binds to a C-terminus epitope; PAb240 recognizes mutant conformation of p53, binds to epitope within the core domain (amino acids 212-217) (Stephen, C. W. and D. P. Lane, Mutant conformation of p53. Precise epitope mapping using a filamentous phage epitope library. J. Mol. Biol., 1992. 225(3): p. 577-83) which is accessible to the Ab when the protein is partially denatured (for example, when the DBD is mutated); and PAb1620, which recognizes WT conformation of p53, binds to epitope with in the core domain (aa 156, 206-210), formed when folding is in WT conformation (Wang, P. L., F. Salt, and G. Winter, The ‘wild type’ conformation of p53: epitope mapping using hybrid proteins. Oncogene, 2001. 20(18): p. 2318-24).
Wells were incubated overnight (ON) with 100 μl Ab (5 μg/ml) in room temp (RT). The liquid was discarded, and the wells were washed 3 times with Phosphate buffered saline (PBS), 200 μl per each wash. Next, blocking with 200 μl of 5% bovine serum albumin (BSA) diluted in PBS in each well for 1.5 hours at room temperature (RT) was performed. Blocking buffer was discarded, followed by 3 washes in PBS as described above. Samples of mutant and WT p53 proteins (100 μl, 10 μg/ml), together with control peptides pCAP-710 (LPNPPER, SEQ ID NO:328) and pCAP-1220 ([…], SEQ ID NO:368) (5 μg/ml, Sigma Aldrich, or with test peptides 1-153 (5 μg/ml), were incubated for 1.5 hours together, and then added to the wells. Samples were rotated and incubated for 1 hour at RT. Samples were discarded, following 4 washes as described above, using Trisphosphate buffered saline (TPBS). Next, horseradish peroxidase (HRP) conjugated streptavidin p53 antibody (10 μg/ml HAF1355 (R&D)) was added to the wells and incubated at RT for 1 hour. After the plate was washed 3 times in TPBS, TMB substrate solution (50 μl each well, Thermo, (Cat. No. ES001-1L-K)) was added and incubated at 37° c. for 20 min. The reaction was stopped with 2M sulfuric acid (50 μl). The absorbance was measured at 450 nm with a spectrophotometer. Protein concentration was determined by dividing the absorbencies of each sample to the absorbance of Ab 421 samples.
The first screening strategy was based on ELISA. A version of sandwich ELISA was used to examine the effect of the lead test peptides on p53 conformation. To measure the conformational effect of the peptides on Mut-p53, a micro-titer plate was coated with PAb240, PAb1620 or pAb421 (as a positive control), and then the reactivity of p53 to these antibodies was examined. WT p53 served as a positive control for reactivity with PAb1620, and Mut-p53 served as a negative control. To examine the effect of a tested peptide it was added to a solution containing Mut-p53 and change in reactivity to either Ab was tested. […] Several ELISA experiments using different cell extracts were performed. […]

HSSHHHPVHSWN [pCAP-83]
binding of H1299-R175H p53 extracts to p53-RE DNA [1]: elevate the binding of H1299-R175H p53 extracts to p53-RE DNA

ATQHHYIK [pCAP-93]
binding of H1299-R175H p53 extracts to p53-RE DNA [1]: elevate the binding of H1299-R175H p53 extracts to p53-RE DNA

ASWQALALYAAGW [pCAP-46]
reduction in cell numbers, R175H p53 expressing WI-38 cells [2]: significant reduction in cell numbers

WNHHHSTPHPAH [pCAP-97]
binding of H1299-R175H p53 extracts to p53-RE DNA [1]: elevate the binding of H1299-R175H p53 extracts to p53-RE DNA
reduction in cell numbers, R175H p53 expressing WI-38 cells [2]: significant reduction in cell numbers

SFILFIRRGRLG [pCAP-60]
reactivity of R175H Mut-p53 towards PAb1620 and PAb240 (conformational change) [3]: increased reactivity of R175H Mut-p53 towards PAb1620 and decreased reactivity towards PAb240
reduction in cell numbers, R175H p53 expressing WI-38 cells [2]: significant reduction in cell numbers

YPTQGHLR [pCAP-36]
reactivity of R175H Mut-p53 towards PAb1620 and PAb240 (conformational change) [3]: increased reactivity of R175H Mut-p53 towards PAb1620 and decreased reactivity towards PAb240
reduction in cell numbers, R175H p53 expressing WI-38 cells [2]: significant reduction in cell numbers

TLYLPHWHRH [pCAP-47]
reactivity of R175H Mut-p53 towards PAb1620 and PAb240 (conformational change) [3]: increased reactivity of R175H Mut-p53 towards PAb1620 and decreased reactivity towards PAb240
reduction in cell numbers, R175H p53 expressing WI-38 cells [2]: significant reduction in cell numbers
